The supplement of paper PMC9112550, “Optimization of the antimicrobial peptide Bac7 by deep mutational scanning” (BMC Biology, 2022)

System: Escherichia coli TOP10
Experiment: shrunken log2 fold change of peptide-encoding DNA abundance (4.5 h post-induction vs induction); higher = less antimicrobial activity (less host growth inhibition)
Settings: time post-induction: 4.5 h; library: site-saturation at positions 5, 18, 19, 20
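Further: peptides expressed intracellularly from a pBAD plasmid library in pooled LB shake-flask culture, induced with 0.3% L-arabinose, DNA abundance read by NGS, three biological replicates, DESeq2 with apeglm shrinkage.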

Row | Sequence | shrunken log2 fold change
1 | RRIRWRPPRLPRPRPRPHSYPRP | -0.0789
2 | RRIRHRPPRLPRPRPRPRPSPRP | 0.466
3 | RRIRLRPPRLPRPRPRPHCHPRP | -0.727
4 | RRIRERPPRLPRPRPRPPWWPRP | 0.537
5 | RRIRWRPPRLPRPRPRPHNCPRP | -0.349
6 | RRIRYRPPRLPRPRPRPLIAPRP | -0.668
7 | RRIRPRPPRLPRPRPRPPNPPRP | 0.453
8 | RRIRTRPPRLPRPRPRPTDAPRP | 0.471
9 | RRIRERPPRLPRPRPRPPHIPRP | -0.366
10 | RRIRGRPPRLPRPRPRPPTLPRP | 0.596
11 | RRIRERPPRLPRPRPRPNKVPRP | -0.372
12 | RRIRCRPPRLPRPRPRPEGWPRP | 0.855
13 | RRIRYRPPRLPRPRPRPVTAPRP | -0.298
14 | RRIRPRPPRLPRPRPRPQVTPRP | -0.0231
15 | RRIRKRPPRLPRPRPRPSANPRP | 0.0126
16 | RRIRVRPPRLPRPRPRPRRLPRP | 0.135
17 | RRIRQRPPRLPRPRPRPLFNPRP | -0.367
18 | RRIRGRPPRLPRPRPRPSQIPRP | -0.111
19 | RRIRHRPPRLPRPRPRPGCNPRP | -0.175
20 | RRIRSRPPRLPRPRPRPYITPRP | -0.535
21 | RRIRKRPPRLPRPRPRPKDCPRP | -0.0519
22 | RRIRIRPPRLPRPRPRPPFEPRP | -0.0183
23 | RRIRIRPPRLPRPRPRPPTNPRP | 0.0455

Row | Sequence | shrunken log2 fold change
24 | RRIRRRPPRLPRPRPRPMRNPRP | 0.959
25 | RRIRARPPRLPRPRPRPFVVPRP | -0.312
26 | RRIRRRPPRLPRPRPRPVKGPRP | -0.0795
27 | RRIRYRPPRLPRPRPRPGQRPRP | 0.212
28 | RRIRWRPPRLPRPRPRPNYVPRP | -0.128
29 | RRIRSRPPRLPRPRPRPFFWPRP | 0.485
30 | RRIRYRPPRLPRPRPRPNRPPRP | 0.000655
31 | RRIRRRPPRLPRPRPRPPNIPRP | -0.0641
32 | RRIRIRPPRLPRPRPRPGRIPRP | 0.0431
33 | RRIRARPPRLPRPRPRPFPNPRP | -0.221
34 | RRIRDRPPRLPRPRPRPIAPPRP | 0.0634
35 | RRIRQRPPRLPRPRPRPQNYPRP | 0.0103
36 | RRIRLRPPRLPRPRPRPLYFPRP | -0.646
37 | RRIRRRPPRLPRPRPRPSEEPRP | 0.125
38 | RRIRHRPPRLPRPRPRPWIFPRP | -0.332
39 | RRIRERPPRLPRPRPRPDCEPRP | -0.0494
40 | RRIRPRPPRLPRPRPRPMGKPRP | -0.0536
41 | RRIRARPPRLPRPRPRPRQWPRP | 0.68
42 | RRIRPRPPRLPRPRPRPKTVPRP | -0.171
43 | RRIRQRPPRLPRPRPRPQSRPRP | 0.00465
44 | RRIRRRPPRLPRPRPRPSPIPRP | 0.11
45 | RRIRNRPPRLPRPRPRPKSKPRP | 0.0844
46 | RRIRERPPRLPRPRPRPAMEPRP | -0.0417

Row | Sequence | shrunken log2 fold change
47 | RRIRQRPPRLPRPRPRPKMAPRP | 0.12
48 | RRIRARPPRLPRPRPRPFHEPRP | -0.166
49 | RRIRRRPPRLPRPRPRPTVPPRP | 0.0694
50 | RRIRIRPPRLPRPRPRPNKEPRP | -0.131
51 | RRIRPRPPRLPRPRPRPVFWPRP | 0.546
52 | RRIRGRPPRLPRPRPRPVWAPRP | 0.591
53 | RRIRFRPPRLPRPRPRPVIMPRP | -0.297
54 | RRIRDRPPRLPRPRPRPLLEPRP | 0.31
55 | RRIRPRPPRLPRPRPRPNCWPRP | 1.74
56 | RRIRGRPPRLPRPRPRPTTVPRP | 0.368
57 | RRIRDRPPRLPRPRPRPETDPRP | 0.0208
58 | RRIRDRPPRLPRPRPRPFPRPRP | -0.135
59 | RRIRARPPRLPRPRPRPSPTPRP | 0.328
60 | RRIRQRPPRLPRPRPRPMAGPRP | 0.132
61 | RRIRGRPPRLPRPRPRPEIVPRP | 0.0103
62 | RRIRMRPPRLPRPRPRPQLNPRP | 0.158
63 | RRIRIRPPRLPRPRPRPFSTPRP | -0.38
64 | RRIRFRPPRLPRPRPRPGYWPRP | 0.0724
65 | RRIRWRPPRLPRPRPRPPTEPRP | 0.597
66 | RRIRSRPPRLPRPRPRPQVDPRP | -0.296
67 | RRIRRRPPRLPRPRPRPYELPRP | -0.297
68 | RRIRKRPPRLPRPRPRPVGPPRP | 0.441
69 | RRIRRRPPRLPRPRPRPKNVPRP | -0.00431

Row | Sequence | shrunken log2 fold change
70 | RRIRFRPPRLPRPRPRPTPFPRP | 0.266
71 | RRIRQRPPRLPRPRPRPCYSPRP | -0.0444
72 | RRIRERPPRLPRPRPRPVCNPRP | -0.12
73 | RRIRHRPPRLPRPRPRPSPKPRP | -0.0976
74 | RRIRNRPPRLPRPRPRPYTCPRP | -0.0637
75 | RRIRGRPPRLPRPRPRPKWLPRP | 0.749
76 | RRIRQRPPRLPRPRPRPLKYPRP | -0.0559
77 | RRIRRRPPRLPRPRPRPQAAPRP | 0.0105
78 | RRIRARPPRLPRPRPRPEELPRP | 0.499
79 | RRIRGRPPRLPRPRPRPMLCPRP | 0.558
80 | RRIRMRPPRLPRPRPRPCGNPRP | 0.137
81 | RRIRVRPPRLPRPRPRPFQSPRP | -0.00568
82 | RRIRFRPPRLPRPRPRPTPHPRP | 0.333
83 | RRIRIRPPRLPRPRPRPDHIPRP | -0.0811
84 | RRIRFRPPRLPRPRPRPDLDPRP | -0.0913
85 | RRIRMRPPRLPRPRPRPMCWPRP | 2.09
86 | RRIRERPPRLPRPRPRPFHRPRP | -0.182
87 | RRIRPRPPRLPRPRPRPPQRPRP | 0.43
88 | RRIRARPPRLPRPRPRPCVIPRP | 0.158
89 | RRIRARPPRLPRPRPRPHNFPRP | -0.108
90 | RRIRNRPPRLPRPRPRPIRDPRP | 0.201
91 | RRIRIRPPRLPRPRPRPVNIPRP | -0.17
